Where a chain is given by its changes, count along the chain named. Values belong to the binder of their own block, whether it stands above or below them.
How the values were obtained:
human Factor XIIa-beta [1] = molecular target: T1, human Factor XIIa-beta (human, UniProt P00748 354-615, limits assumed); test: SPR (Biacore A100), unpurified IgG4 supernatant captured on anti-human IgG, single FXIIa beta concentration (100 nM), 37 C, 1:1 fit; estimated
T1 construct: Bought from Enzyme Research Laboratories; also called FXIIa beta; FXIIa-beta
T1 sequence: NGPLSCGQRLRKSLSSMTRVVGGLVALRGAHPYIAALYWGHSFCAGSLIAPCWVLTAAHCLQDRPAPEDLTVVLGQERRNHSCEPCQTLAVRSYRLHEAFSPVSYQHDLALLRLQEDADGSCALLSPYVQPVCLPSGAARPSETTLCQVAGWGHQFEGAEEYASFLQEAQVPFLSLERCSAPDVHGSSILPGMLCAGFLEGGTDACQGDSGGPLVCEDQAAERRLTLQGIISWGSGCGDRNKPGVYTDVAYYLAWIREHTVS
Protocol: Anti-human (Goat anti-human IgG (gamma) mouse adsorbed, Invitrogen, Cat No. H10500) was chemically immobilised on a CM-5 sensor surface using amine coupling chemistry. Culture supernatants were diluted 1/60 with running buffer before capture. Antibodies were captured for 180 seconds representing an average capture of 800 response units (RU). FXIIa beta was then injected at zero and 100 nM for 180 seconds, and dissociated for 180 seconds. All assays were conducted on a Biacore A100 instrument at 37 degrees Celsius and the data fitted to a 1:1 kinetic model.

human Factor XIIa-beta [2] = molecular target: T1, human Factor XIIa-beta; test: SPR (Biacore), purified IgG4 captured on anti-human IgG, FXIIa beta 0-40 nM, 1:1 fit, 25 C
human Factor XIIa-beta [3] = molecular target: T1, human Factor XIIa-beta; test: SPR (Biacore), KD against parental 3F7
human Factor XIIa-alpha = molecular target: T2, human Factor XIIa-alpha (human, UniProt P00748 20-615); test: cell-based or functional assay
T2 sequence: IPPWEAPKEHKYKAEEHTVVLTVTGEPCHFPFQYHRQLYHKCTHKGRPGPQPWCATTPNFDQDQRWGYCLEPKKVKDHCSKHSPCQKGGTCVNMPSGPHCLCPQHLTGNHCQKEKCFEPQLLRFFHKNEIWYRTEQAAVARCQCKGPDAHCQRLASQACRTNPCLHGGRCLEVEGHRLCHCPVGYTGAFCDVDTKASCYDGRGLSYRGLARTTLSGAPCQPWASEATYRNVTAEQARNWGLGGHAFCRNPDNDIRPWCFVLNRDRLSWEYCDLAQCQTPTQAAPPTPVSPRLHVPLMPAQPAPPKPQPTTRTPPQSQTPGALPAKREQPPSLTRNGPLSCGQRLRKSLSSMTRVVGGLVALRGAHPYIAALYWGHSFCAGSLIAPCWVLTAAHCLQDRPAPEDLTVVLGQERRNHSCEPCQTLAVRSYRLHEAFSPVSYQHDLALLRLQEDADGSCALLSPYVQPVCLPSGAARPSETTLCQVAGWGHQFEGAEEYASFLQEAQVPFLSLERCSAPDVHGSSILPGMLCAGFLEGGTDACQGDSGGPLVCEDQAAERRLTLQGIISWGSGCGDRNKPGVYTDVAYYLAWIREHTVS

Kd (human Factor XIIa-beta [1]): 5.8 nM
B1: VR167 (antibody, V domains shown)
VH: EVQLLESGGGLVQPGGSLRLSCAASGFTFSKYIMQWVRQAPGKGLEWVSGIRPSGGTTVYADSVKGRFTISRDNSKNTLYLQMNSLRAEDTAVYYCARALPRSGYLMKTGYYYYALDVWGQGTTVTVSS
VL: QSELTQPPSASGTPGQRVTISCSGSSSNIGRNYVYWYQQVPGTAPKLLIYSNNQRPSGVPDRFSGSKSGTSASLVISGLRSEDEADYYCAAWDASLRGVFGGGTKLTVLG
notes: Libraries were built on germline stop templates, so frameworks may differ

Kd (human Factor XIIa-beta [1]): 7.1 nM
B2: VR52 (antibody, V domains shown)
VH: B1 VH with M107I, K108S, T109P, G110H
VL: QSVLTQPPSASGTPGQRVTISCSGSSSNIGRNYVYWYQQLPGTAPKLLIYSNNQRPSGVPDRFSGSKSGTSASLAISGLRSEDEADYYCAAWDERVRLMFGGGTKLTVL
notes: as for B1

Kd (human Factor XIIa-beta [1]): 1.52 nM
Kd (human Factor XIIa-beta [2]): 0.17 nM
koff (human Factor XIIa-beta [2]): 4.3e-05 s⁻¹
kon (human Factor XIIa-beta [2]): 250000 M⁻¹ s⁻¹
Fold affinity improvement (human Factor XIIa-beta [3]): 51 fold
% Inhibition, ratio FXIIa-alpha:Antibody 1:0.1 (human Factor XIIa-alpha): 39.9%
% Inhibition, ratio FXIIa-alpha:Antibody 1:0.2 (human Factor XIIa-alpha): 68.7%
% Inhibition, ratio FXIIa-alpha:Antibody 1:0.5 (human Factor XIIa-alpha): 99.7%
% Inhibition, ratio FXIIa-alpha:Antibody 1:1 (human Factor XIIa-alpha): 100%
% Inhibition, ratio FXIIa-alpha:Antibody 1:2 (human Factor XIIa-alpha): 100%
% Inhibition, ratio FXIIa-alpha:Antibody 1:5 (human Factor XIIa-alpha): 100%
% Inhibition, ratio FXIIa-alpha:Antibody 1:10 (human Factor XIIa-alpha): 100%
B3: VR112 (antibody, V domains shown)
VH: B1 VH with R52N, P53V, S54P, G55V, G56Q, T57G, M107I, K108S, T109P, G110H
VL: B1 VL

Kd (human Factor XIIa-beta [1]): 5.98 nM
B4: VR109 (antibody, V domains shown)
VH: B1 VH with R52N, S54A, G55T, G56N, M107I, K108S, T109P, G110H
VL: B1 VL
notes: as for B1

Kd (human Factor XIIa-beta [1]): 5.12 nM
B5: VR149 (antibody, V domains shown)
VH: B1 VH with T109K, G110N
VL: B1 VL
notes: as for B1

Kd (human Factor XIIa-beta [1]): 1.31 nM
Kd (human Factor XIIa-beta [2]): 0.36 nM
koff (human Factor XIIa-beta [2]): 5.9e-05 s⁻¹
kon (human Factor XIIa-beta [2]): 160000 M⁻¹ s⁻¹
Fold affinity improvement (human Factor XIIa-beta [3]): 24 fold
B6: VR119 (antibody, V domains shown)
VH: B1 VH with R52N, P53V, S54P, G55L, G56Y, T57G, M107I, K108S, T109P, G110H
VL: B1 VL

Kd (human Factor XIIa-beta [1]): 6.67 nM
B7: VR46 (antibody, V domains shown)
VH: B1 VH with M107I, K108S, T109P, G110H
VL: B2 VL with A91S, D93E, E94L, R95P, V96L, L98G, M99V
notes: as for B1

Kd (human Factor XIIa-beta [1]): 7.13 nM
B8: VR160 (antibody, V domains shown)
VH: B1 VH with T109P
VL: B1 VL
notes: as for B1

Kd (human Factor XIIa-beta [1]): 9.19 nM
B9: VR99 (antibody, V domains shown)
VH: B1 VH with R52N, S54A, G55T, G56M, M107I, K108S, T109P, G110H
VL: B1 VL
notes: as for B1

Kd (human Factor XIIa-beta [1]): 6.93 nM
B10: VR159 (antibody, V domains shown)
VH: B1 VH with M107V, T109H
VL: B1 VL
notes: as for B1

Kd (human Factor XIIa-beta [1]): 2.45 nM
B11: VR107 (antibody, V domains shown)
VH: B1 VH with R52N, S54A, G55T, G56R, M107I, K108S, T109P, G110H
VL: B1 VL
notes: as for B1

Kd (human Factor XIIa-beta [1]): 2.87 nM
B12: VR103 (antibody, V domains shown)
VH: B1 VH with R52D, P53V, S54P, G55V, G56R, T57G, M107I, K108S, T109P, G110H
VL: B1 VL
notes: as for B1

Kd (human Factor XIIa-beta [1]): 1.56 nM
Kd (human Factor XIIa-beta [2]): 0.15 nM
koff (human Factor XIIa-beta [2]): 2.5e-05 s⁻¹
kon (human Factor XIIa-beta [2]): 170000 M⁻¹ s⁻¹
Fold affinity improvement (human Factor XIIa-beta [3]): 57 fold
% Inhibition, ratio FXIIa-alpha:Antibody 1:0.1 (human Factor XIIa-alpha): 39.4%
% Inhibition, ratio FXIIa-alpha:Antibody 1:0.2 (human Factor XIIa-alpha): 72.8%
% Inhibition, ratio FXIIa-alpha:Antibody 1:0.5 (human Factor XIIa-alpha): 100%
% Inhibition, ratio FXIIa-alpha:Antibody 1:1 (human Factor XIIa-alpha): 100%
% Inhibition, ratio FXIIa-alpha:Antibody 1:2 (human Factor XIIa-alpha): 100%
% Inhibition, ratio FXIIa-alpha:Antibody 1:5 (human Factor XIIa-alpha): 100%
% Inhibition, ratio FXIIa-alpha:Antibody 1:10 (human Factor XIIa-alpha): 100%
B13: VR115 (antibody, V domains shown)
VH: B1 VH with R52D, P53I, S54P, G55T, G56K, T57G, M107I, K108S, T109P, G110H
VL: B1 VL
